Experimental data from the supplement of paper PMC7125110.
± gives the standard error. For part of these data: Fewer inactive variants are shown than the library holds.

B1: glmS ribozyme (parent)
chain: AUAAAAGCGCCAGAACUACAGAAAUGUAGUUGACGAGGAGGAGGUUUAUCGAAUUUUCGGCGGAUGCCUCCAAA

Key:
Conditions in all cases: with glucosamine-6-phosphate
[1] = variants of: B1; experiment: kcat; higher = faster cleavage; RNA array
How it was run: (§1)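 kcat and KM were obtained from weighted Michaelis–Menten fits across concentrations of kobs values. Those came from one- or two-exponential decay fits to per-tile medians normalised to baseline and to non-cleaving reference variants. The variants were barcoded ribozymes transcribed in situ by E. coli RNA polymerase on sequenced MiSeq chips and tracked through a hybridised Cy3 probe at 37 °C, with 40 μM to 10 mM glucosamine-6-phosphate in HEPES/KCl/Mg(OAc)2 buffer flowed in.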

[2] = variants of: B1; experiment: KM; higher = weaker cofactor use; RNA array
How it was run: as §1

[3] = variants of: B1; experiment: self-cleavage kobs at 160 uM GlcN6P; higher = faster cleavage; RNA array
How it was run: as §1

[4] = variants of: B1; experiment: self-cleavage kobs at 640 uM GlcN6P; higher = faster cleavage; RNA array
How it was run: as §1

[5] = variants of: B1; experiment: self-cleavage kobs at 2500 uM GlcN6P; higher = faster cleavage; RNA array
How it was run: as §1

[6] = variants of: B1; experiment: self-cleavage kobs at 10000 uM GlcN6P; higher = faster cleavage; RNA array
How it was run: as §1

[7] = variants of: B1; experiment: self-cleavage kobs at 40 uM GlcN6P; higher = faster cleavage; RNA array
How it was run: as §1

Row | Variant | kcat [1] [s⁻¹] | KM [2] [µM] | self-cleavage kobs at 160 uM GlcN6P [3] [s⁻¹] | self-cleavage kobs at 640 uM GlcN6P [4] [s⁻¹] | self-cleavage kobs at 2500 uM GlcN6P [5] [s⁻¹] | self-cleavage kobs at 10000 uM GlcN6P [6] [s⁻¹] | self-cleavage kobs at 40 uM GlcN6P [7] [s⁻¹]
1 | G13A U56G | 0.000892 ± 0.0002 | 3800 ± 1300 | 4.73e-05 ± 9.8e-06 | 0.000128 ± 1.8e-05 | 0.000264 ± 5.9e-05 | 0.000696 ± 8.2e-05 | –
2 | G13U G51A | < 1e-05 | – | – | < 1e-05 | < 1e-05 | < 1e-05 | –
3 | A14G G40A G41U G66A | 0.000815 ± 0.00014 | 2850 ± 980 | – | 0.000149 ± 3.6e-05 | 0.000356 ± 9.3e-05 | 0.000645 ± 0.0001 | –
4 | A14G U45A U49G | 0.00282 ± 0.001 | 2040 ± 970 | 0.000143 ± 3.9e-05 | 0.000745 ± 0.00011 | 0.00136 ± 0.00063 | 0.00233 ± 0.00051 | 8.34e-05 ± 1.7e-05
5 | A14G A53U | 0.0349 ± 0.012 | 1060 ± 450 | 0.00482 ± 0.00076 | 0.011 ± 0.0013 | 0.0342 ± 0.015 | 0.0446 ± 0.0086 | 0.00142 ± 0.00015
6 | A14G G44A | 0.00146 ± 0.00055 | – | 4.23e-05 ± 1.4e-05 | 0.000664 ± 0.00018 | 0.00104 ± 0.00021 | 0.00102 ± 0.00013 | 2.21e-05 ± 9.5e-06
7 | A14G G35C | < 1e-05 | – | < 1e-05 | < 1e-05 | < 1e-05 | – | < 1e-05
8 | A14C G32A | 0.00779 ± 0.0028 | – | 0.000388 ± 0.00011 | 0.0014 ± 0.00034 | 0.00183 ± 0.00065 | 0.00702 ± 0.00097 | 0.000121 ± 2.5e-05
9 | G13U C61A | 1.33e-05 ± 2.2e-06 | – | – | – | – | – | –
10 | A14G G29C | 0.000331 ± 6.9e-05 | 1330 ± 540 | 6.33e-05 ± 1.1e-05 | 9.55e-05 ± 8.8e-06 | 0.000253 ± 2.6e-05 | 0.00028 ± 2.9e-05 | –
11 | A14G G29U | 0.00845 ± 0.0039 | – | 0.00105 ± 0.00022 | 0.00497 ± 0.00096 | 0.00501 ± 0.0013 | 0.0131 ± 0.0033 | 0.000647 ± 0.00012
12 | A14C U46A | 0.000352 ± 1.6e-05 | 1880 ± 170 | – | 9.13e-05 ± 1e-05 | 0.000194 ± 2.1e-05 | 0.000301 ± 3.2e-05 | –
13 | A14C U46C | 0.000346 ± 4.7e-05 | 1090 ± 350 | 5.14e-05 ± 1.9e-05 | 0.000128 ± 2.4e-05 | – | 0.000326 ± 4.5e-05 | –
14 | A14C U46G | 0.000823 ± 0.00019 | 1630 ± 660 | 8.78e-05 ± 1.5e-05 | 0.000209 ± 2.4e-05 | 0.000478 ± 4.8e-05 | 0.000795 ± 0.0001 | 4.79e-05 ± 1.2e-05
15 | G13U G29A | 0.000411 ± 4.9e-05 | 6480 ± 1300 | – | 3.19e-05 ± 1.3e-05 | 0.000121 ± 2.2e-05 | 0.000246 ± 4.2e-05 | –
16 | G13A U49C | < 1e-05 | – | – | – | – | < 1e-05 | < 1e-05

Row | Variant | kcat [1] [s⁻¹] | KM [2] [µM] | self-cleavage kobs at 160 uM GlcN6P [3] [s⁻¹] | self-cleavage kobs at 640 uM GlcN6P [4] [s⁻¹] | self-cleavage kobs at 2500 uM GlcN6P [5] [s⁻¹] | self-cleavage kobs at 10000 uM GlcN6P [6] [s⁻¹] | self-cleavage kobs at 40 uM GlcN6P [7] [s⁻¹]
17 | A14C U31G | 0.0249 ± 0.0019 | 2550 ± 250 | 0.00145 ± 0.00024 | 0.00494 ± 0.00094 | 0.0154 ± 0.0047 | 0.0194 ± 0.0031 | 0.000384 ± 5.3e-05
18 | A14C U31A | 0.0083 ± 0.0041 | – | 0.00135 ± 0.00031 | 0.00413 ± 0.0019 | 0.00676 ± 0.0026 | – | 0.000559 ± 0.00011
19 | G13U A64G | 0.00128 ± 0.00031 | 4210 ± 1600 | 4.62e-05 ± 1.2e-05 | 0.000149 ± 1.9e-05 | 0.000657 ± 6.9e-05 | 0.000847 ± 8.3e-05 | –
20 | G13U A39C | 0.000234 ± 2e-05 | 4490 ± 600 | – | 2.78e-05 ± 6e-06 | 8.65e-05 ± 1e-05 | 0.000158 ± 2.7e-05 | –
21 | G13U A39G | 0.00264 ± 0.00039 | 2070 ± 520 | 0.000147 ± 3.4e-05 | 0.000749 ± 0.00012 | 0.00177 ± 0.0003 | 0.00208 ± 0.00023 | 5.19e-05 ± 1.1e-05
22 | G13C U69G | 5.45e-05 ± 1.1e-05 | – | 4.33e-05 ± 1.6e-05 | 9.44e-05 ± 2.5e-05 | 4.52e-05 ± 1.2e-05 | – | 3.61e-05 ± 1.3e-05
23 | G13C A42G | 0.00017 ± 1.8e-05 | 4030 ± 920 | – | 3.16e-05 ± 1.6e-05 | 6.19e-05 ± 1.3e-05 | 0.000123 ± 1.8e-05 | < 1e-05
24 | G13A G66A | 0.000323 ± 2.9e-05 | 3550 ± 700 | – | – | 0.000129 ± 3.2e-05 | 0.000241 ± 4.7e-05 | –
25 | G13A G66U | 1.72e-05 ± 6.7e-06 | – | – | – | – | – | < 1e-05
26 | G13C A14C C61A C67U | 3.08e-05 ± 1.3e-05 | – | – | 4.47e-05 ± 1.8e-05 | – | – | –
27 | G13U U57C | 4.31e-05 ± 6.8e-06 | – | – | – | 3.41e-05 ± 1.3e-05 | 3.63e-05 ± 1.8e-05 | –
28 | G13A U47A | 0.000438 ± 6e-05 | 3210 ± 750 | – | 7.42e-05 ± 1.6e-05 | 0.000178 ± 3.2e-05 | 0.000349 ± 6.5e-05 | –
29 | A14C C68G | 2.74e-05 ± 5.8e-06 | – | – | 4.49e-05 ± 1.5e-05 | – | 2.58e-05 ± 8.4e-06 | –
30 | G13C U47A G59U C67G | 1.81e-05 ± 2.9e-06 | – | – | < 1e-05 | – | – | –
31 | G13U U46G A52C C67U C70G | 2.41e-05 ± 6.8e-06 | – | – | – | – | – | –
